From patent US20190194664

Test system: eGFP-Polη

In the case of “Rad18 mutant lacking the residues phosphorylated by the Cdc7 kinase (Rad18Δ401-445)”, the “suppression of UV-dependent Chk1 phosphorylation” value is reported as “this mutant did not either suppress Chk1 phosphorylation”.
